According to the Immune Epitope Database (IEDB):

Key:
HLA-A*68:02 [1] = assay: IEDB peptide-MHC binding, purified MHC/competitive/radioactivity; ≥ and ≤ were set here for values at or beyond the usual limits of such assays; details: source organism: Vaccinia virus WR
HLA-A*02:06 [2] = assay: as above; details: source organism: Vaccinia virus WR
HLA-A*02:02 [3] = assay: as above; details: source organism: Vaccinia virus WR
HLA-A*02:03 [4] = assay: IEDB peptide-MHC binding, cellular MHC/competitive/fluorescence; ≥ and ≤ were set here for values at or beyond the usual limits of such assays; details: source organism: Vaccinia virus WR
HLA-A*02:01 [5] = assay: as above
HLA-A*02:03 [6] = assay: IEDB peptide-MHC binding, purified MHC/competitive/radioactivity; ≥ and ≤ were set here for values at or beyond the usual limits of such assays
HLA-A*68:02 [7] = assay: IEDB peptide-MHC binding, cellular MHC/competitive/fluorescence; ≥ and ≤ were set here for values at or beyond the usual limits of such assays
HLA-A*02:06 [8] = assay: as above
HLA-A*02:02 [9] = assay: as above
HLA-A*02:01 [10] = assay: IEDB peptide-MHC binding, purified MHC/competitive/radioactivity; ≥ and ≤ were set here for values at or beyond the usual limits of such assays; details: source organism: Vaccinia virus WR
[11] = source organism: Vaccinia virus WR
[12] = source organism: Influenza A virus

Sequence | IC50 (HLA-A*68:02 [1]) | IC50 (HLA-A*02:06 [2]) | IC50 (HLA-A*02:02 [3]) | IC50 (HLA-A*02:03 [4]) | IC50 (HLA-A*02:01 [5]; [11]) | IC50 (HLA-A*02:03 [6]; [11]) | IC50 (HLA-A*68:02 [7]; [11]) | IC50 (HLA-A*02:06 [8]; [11]) | IC50 (HLA-A*02:02 [9]; [11]) | further results
MVEYLENQL | 0.591 µM | 3.96 µM | 0.343 µM | 6.46 µM | 12 µM | – | – | – | – | –
HTYHLENDKI | 0.284 µM | 1.99 µM | 1.79 µM | 13.7 µM | 59 µM | – | – | – | – | –
ELENKKVEYV | – | – | – | – | 35.5 µM | 3.65 µM | ≥ 70 µM | ≥ 70 µM | 21.4 µM | –
IIYSKAGNI | – | – | – | – | 50.7 µM | 0.013 µM | 5.39 µM | 13.7 µM | 9.76 µM | –
CTMERTNDLT | 0.0087 µM | 1.01 µM | 4.05 µM | 16.1 µM | 18.6 µM | – | – | – | – | –
QMYRKFSRCT | – | – | – | – | 27.1 µM | 2.27 µM | 48.2 µM | 14.7 µM | 25.7 µM | –
NALLKHRFEII | – | – | – | – | – | – | – | – | – | IC50 (HLA-A*02:03 [6]; [12]): 4.1 µM; IC50 (HLA-A*68:02 [7]; [12]): 12.4 µM; IC50 (HLA-A*02:06 [8]; [12]): 5.36 µM; IC50 (HLA-A*02:02 [9]; [12]): 11.2 µM; IC50 (HLA-A*02:01 [5]; [12]): 22.7 µM
NAVTTNNLL | 4 µM | 0.202 µM | 1.85 µM | 24.9 µM | – | – | – | – | – | –
TTTFITVLT | 0.033 µM | 1.09 µM | 2.46 µM | 8.59 µM | – | – | – | – | – | IC50 (HLA-A*02:01 [10]): 2.32 µM
TTPLISFFGL | 0.198 µM | 3.36 µM | 5 µM | 17.6 µM | 27.3 µM | – | – | – | – | –
ITNILGGVL | – | – | – | – | ≥ 70 µM | 2.44 µM | 9.24 µM | 32.5 µM | 7.38 µM | –
FIVYGRSNA | – | – | – | – | 16.9 µM | 0.37 µM | 5.26 µM | 8.75 µM | 6.09 µM | –
LMLHNPTSET | – | – | – | – | 8.92 µM | 4.48 µM | ≥ 70 µM | 11.1 µM | 39.3 µM | –
LMSDNPKAST | – | – | – | – | 8.98 µM | 0.938 µM | ≥ 70 µM | 47.4 µM | 8.88 µM | –
